{"source": "paper PMC12341506", "target": "3nv.2 SOSIP Env trimer (HIV-1 (clade C strain 426c))", "experiment": "cryo-EM structure; single-particle cryo-EM of unliganded 3nv.2 SOSIP Env, from a sample incubated with polyclonal Fabs and purified by SEC in TBS; 2D class averages and 3D map, C1 or C3 symmetry", "data": [{"substance": "3nv.2 SOSIP Env trimer", "values": [{"measurement": "stoichiometry N", "result": 3}]}]}
